Measurements taken from patent publication US20180195056.

B1: full-length xlAtg4B (Xenopus laevis Atg4B, residues 1-384) (protein)
chain: MDAATLTYDTLRFADTPDFPETAEPVWVLGRKYSALTEKEQLLNDITSRLWFTYRRNFQAIGGTGPTSDTGWGCMLRCGQMIFAQALICRHVGRDWRWDKQKPKGEYLNILTAFLDKKDSYYSIHQIAQMGVGEGKYIGQWYGPNTVAQVLRKLAVFDQWSSIAVHIAMDNTVVVDEIRRLCRAGSGESSDAGALSNGYTGDSDPSCAQWKPLVLLIPLRLGLSEINEAYIETLKHCFMVPQSLGVIGGRPNSAHYFIGYVGDELIYLDPHTTQLSVEPSDCSFIEDESFHCQHPPCRMHVSEIDPSIAVGFFCSSQEDFEDWCQHIKKLSLSGGALPMFEVVDQLPLHLSNPDVLNLTPDSSDADRLDRFFDSEDEEFEILSL
B2: xlAtg4B^25-384 (protein)
chain: PVWVLGRKYSALTEKEQLLNDITSRLWFTYRRNFQAIGGTGPTSDTGWGCMLRCGQMIFAQALICRHVGRDWRWDKQKPKGEYLNILTAFLDKKDSYYSIHQIAQMGVGEGKYIGQWYGPNTVAQVLRKLAVFDQWSSIAVHIAMDNTVVVDEIRRLCRAGSGESSDAGALSNGYTGDSDPSCAQWKPLVLLIPLRLGLSEINEAYIETLKHCFMVPQSLGVIGGRPNSAHYFIGYVGDELIYLDPHTTQLSVEPSDCSFIEDESFHCQHPPCRMHVSEIDPSIAVGFFCSSQEDFEDWCQHIKKLSLSGGALPMFEVVDQLPLHLSNPDVLNLTPDSSDADRLDRFFDSEDEEFEILSL
B3: xlAtg4B^14-384 (protein)
chain: ADTPDFPETAEPVWVLGRKYSALTEKEQLLNDITSRLWFTYRRNFQAIGGTGPTSDTGWGCMLRCGQMIFAQALICRHVGRDWRWDKQKPKGEYLNILTAFLDKKDSYYSIHQIAQMGVGEGKYIGQWYGPNTVAQVLRKLAVFDQWSSIAVHIAMDNTVVVDEIRRLCRAGSGESSDAGALSNGYTGDSDPSCAQWKPLVLLIPLRLGLSEINEAYIETLKHCFMVPQSLGVIGGRPNSAHYFIGYVGDELIYLDPHTTQLSVEPSDCSFIEDESFHCQHPPCRMHVSEIDPSIAVGFFCSSQEDFEDWCQHIKKLSLSGGALPMFEVVDQLPLHLSNPDVLNLTPDSSDADRLDRFFDSEDEEFEILSL
B4: xlAtg4B^25-345 (protein)
chain: PVWVLGRKYSALTEKEQLLNDITSRLWFTYRRNFQAIGGTGPTSDTGWGCMLRCGQMIFAQALICRHVGRDWRWDKQKPKGEYLNILTAFLDKKDSYYSIHQIAQMGVGEGKYIGQWYGPNTVAQVLRKLAVFDQWSSIAVHIAMDNTVVVDEIRRLCRAGSGESSDAGALSNGYTGDSDPSCAQWKPLVLLIPLRLGLSEINEAYIETLKHCFMVPQSLGVIGGRPNSAHYFIGYVGDELIYLDPHTTQLSVEPSDCSFIEDESFHCQHPPCRMHVSEIDPSIAVGFFCSSQEDFEDWCQHIKKLSLSGGALPMFEVVDQ

Row | Protein | cleavage efficiency at limiting substrate concentration (constant protease:substrate ratio 1:1000, 1 h, 0° C.) (His14-xlLC3B-MBP) | protease concentration sufficient to cleave 100 µM substrate within 1 h at 0° C. (His14-xlLC3B-MBP) | salt sensitivity of substrate cleavage (500 nM protease, 1 h, 0° C.) (His14-xlLC3B-MBP) | substrate excess cleaved to near completion within 1 h at 37° C. (His14-xlLC3B-MBP) | salt sensitivity of substrate cleavage (500 nM protease, 1 h, 0° C.) (His14-xlGATE16-MBP) | temperature needed for near-complete cleavage of a 6600-fold substrate excess in 1 h (His14-xlGATE16-MBP) | substrate excess cleaved to near completion within 1 h at 25° C. (His14-xlGATE16-MBP) | substrate cleavage (20 µM protease, 100 µM substrate, 3 h, 25° C.) (His14-xlLC3B-MBP) | temperature dependence of substrate cleavage (His14-xlLC3B-MBP) | time for efficient cleavage (>95%) at 500 nM protease, 0° C., against full-length or N-terminally truncated enzymes (His14-xlLC3B-MBP) | cleavage efficiency at limiting substrate concentration (constant protease:substrate ratio 1:2000, 1 h, 0° C.) (His14-xlGATE16-MBP) | percent of a 6600-fold substrate excess cleaved in 1 h at 37° C. (His14-xlGATE16-MBP) | protease concentration needed to cleave 100 µM substrate within 2 h at 0° C. (His14-xlGATE16-MBP) | protease required for substrate processing at 0° C., against the other protease fragments (His14-xlGATE16-MBP) | protease required for substrate processing at 25° C., against the other protease fragments (His14-xlGATE16-MBP)
1 | B1 | full-length xlAtg4B and both N-terminally shortened fragments could cleave the xlLC3B substrate rather efficiently even at substrate concentrations as low as 3-10 µM | 1 µM of each protease fragment was sufficient to cleave 100 µM of substrate within 1 h | xlLC3B processing by full-length xlAtg4B or its N-terminally truncated fragments was remarkably insensitive towards NaCl concentrations up to 1.5 M | Within 1 h at 37° C., all three enzymes were able to cleave a >3000-fold excess of the xlLC3B substrate to near completion | also full-length or N-terminally truncated xlAtg4B fragments showed a reduced cleavage activity at ≥1 M NaCl | the full-length enzyme required 37 °C for a similarly efficient cleavage |  |  |  |  |  |  |  |  | 
2 | B2 | full-length xlAtg4B and both N-terminally shortened fragments could cleave the xlLC3B substrate rather efficiently even at substrate concentrations as low as 3-10 µM | 1 µM of each protease fragment was sufficient to cleave 100 µM of substrate within 1 h | xlLC3B processing by full-length xlAtg4B or its N-terminally truncated fragments was remarkably insensitive towards NaCl concentrations up to 1.5 M | Within 1 h at 37° C., all three enzymes were able to cleave a >3000-fold excess of the xlLC3B substrate to near completion | also full-length or N-terminally truncated xlAtg4B fragments showed a reduced cleavage activity at ≥1 M NaCl |  | near-complete cleavage of a 6600-fold substrate excess was reached for the two N-terminally shortened protease fragments already at 25 °C |  |  |  |  |  |  |  | 
3 | B3 | full-length xlAtg4B and both N-terminally shortened fragments could cleave the xlLC3B substrate rather efficiently even at substrate concentrations as low as 3-10 µM | 1 µM of each protease fragment was sufficient to cleave 100 µM of substrate within 1 h | xlLC3B processing by full-length xlAtg4B or its N-terminally truncated fragments was remarkably insensitive towards NaCl concentrations up to 1.5 M | Within 1 h at 37° C., all three enzymes were able to cleave a >3000-fold excess of the xlLC3B substrate to near completion | also full-length or N-terminally truncated xlAtg4B fragments showed a reduced cleavage activity at ≥1 M NaCl |  | near-complete cleavage of a 6600-fold substrate excess was reached for the two N-terminally shortened protease fragments already at 25 °C | xlLC3B was nearly exclusively recognized by xlAtg4B^14-384 |  |  |  |  |  |  | 
4 | B4 | the C-terminally truncated protease showed significantly reduced cleavage already at 100-30 µM substrate concentration | 1 µM of each protease fragment was sufficient to cleave 100 µM of substrate within 1 h | Deletion of the protease's C-terminus, however, rendered the reaction salt sensitive at NaCl concentrations ≥0.5 M |  | The weak activity of xlAtg4B^25-345 on xlGATE16 was further reduced at salt concentrations ≥0.5 M |  |  |  | The boost of xlLC3B substrate processing at higher temperatures, however, was much weaker for this protease fragment | efficient cleavage (i.e. >95% cleavage) of the xlLC3B substrate required twice as long when using xlAtg4B^25-345 instead of the full-length or just N-terminally truncated xlAtg4B enzymes | Even more drastic effects were observed when cleaving xlGATE16-MBP with xlAtg4B^25-345 (FIG. 6A, right lower panel). Here, processing was poor even at 300 µM substrate concentration | could only cleave ≈30-4 0% of a 6600-fold substrate excess even at 37 °C | 500 nM of xlAtg4B^25-345 were insufficient to cleave 100 µM of xlGATE16 substrate within 2 h at 0 °C | ≈10-fold and ≈30-fold more xlAtg4B^25-345 was required for xlGATE16 processing as compared to the other protease fragments at 0 °C and 25° C., respectively | ≈10-fold and ≈30-fold more xlAtg4B^25-345 was required for xlGATE16 processing as compared to the other protease fragments at 0 °C and 25° C., respectively
